Experimental findings from patent US20260000597A1 (priority 2018, published 2026) are described below.

As a reminder, the pIC50 is −log10 of the IC50, conventionally taken in molar units. A higher pIC50 goes with a low IC50.

pIC50: −log10 of the molar value. Like-named read-outs stand apart in the source and are kept apart here. Non-standard residues stand in square brackets, D forms with d. Residues, ends and D or L forms follow the SMILES beside them. No end group written: not given here. *: point of attachment. Palmitoyl = CCCCCCCCCCCCCCCC(=O)*; Dab = NCC[C@H](N)C(=O)O; NHBn = c1ccc(CN*)cc1; βAla = NCCC(=O)O

In series [1] the target is Acetylcholine receptor proteins (AchR) (Homo sapiens, UniProt P02708). It counts as binding. The following applies: for AchR binding affinity compared with Spep-2 / AchR binding affinity (resonance units: Ru) among representative peptides / AchR binding affinity: SPR; for AchR binding affinity (resonance units: Ru) among representative peptides: peptides 3 μM; for AchR binding affinity: 10 μM peptides, compared with Synake. How it is done:
Spep-1 to Spep-11 selected in Example 1 were synthesized, and the AchR binding affinity was compared thereamong using a surface plasmon resonance (SPR) analyzer (Biacore3000, Biacore A, Sweden). […]
The treatment concentrations of Spep-2 were 0.12 to 1 μM, and the dissociation constant was compared while Synake was used as a positive control.

The target in series [2] is T1, AchR (Homo sapiens, UniProt P02708). Kind of series: ELISA of screened peptide phages on AchR versus streptavidin (OD450). It counts as binding. The following applies: absorbance at 450 nm. An outline of the steps:
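Reported as the ratio of AchR to streptavidin OD450, with TMB read-out after HRP anti-M13 detection. Wells coated with 5 μg/ml target overnight at 4 °C and BSA-blocked, then incubated 1 h at 30 °C with helper-rescued phage from individual plaques.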
Target sequence in this assay (P02708 21-457): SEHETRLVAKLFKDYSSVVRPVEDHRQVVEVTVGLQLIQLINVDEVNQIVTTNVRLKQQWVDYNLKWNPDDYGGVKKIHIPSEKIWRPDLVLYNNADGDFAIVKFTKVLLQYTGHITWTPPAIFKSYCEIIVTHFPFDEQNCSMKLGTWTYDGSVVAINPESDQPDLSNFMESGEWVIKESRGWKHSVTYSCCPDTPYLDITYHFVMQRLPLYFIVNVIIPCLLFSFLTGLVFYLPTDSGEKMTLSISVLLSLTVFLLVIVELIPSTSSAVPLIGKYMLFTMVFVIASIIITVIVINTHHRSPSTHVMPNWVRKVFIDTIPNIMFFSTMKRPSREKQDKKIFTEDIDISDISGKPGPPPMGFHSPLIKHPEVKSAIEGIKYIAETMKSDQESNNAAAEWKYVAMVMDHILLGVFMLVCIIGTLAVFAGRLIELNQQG

Series [3] deals with T1, AchR. The series can be described thus: cell-based. The settings on record: for AchR inhibitory effect: acetylcholine treatment. The series is classed as cell-based. The arrangement: endogenous in cells; host or cells: TE671.
Target sequence in this assay (P02708 21-457): as above
Target sequence in this assay (Q07001 22-517, further chain): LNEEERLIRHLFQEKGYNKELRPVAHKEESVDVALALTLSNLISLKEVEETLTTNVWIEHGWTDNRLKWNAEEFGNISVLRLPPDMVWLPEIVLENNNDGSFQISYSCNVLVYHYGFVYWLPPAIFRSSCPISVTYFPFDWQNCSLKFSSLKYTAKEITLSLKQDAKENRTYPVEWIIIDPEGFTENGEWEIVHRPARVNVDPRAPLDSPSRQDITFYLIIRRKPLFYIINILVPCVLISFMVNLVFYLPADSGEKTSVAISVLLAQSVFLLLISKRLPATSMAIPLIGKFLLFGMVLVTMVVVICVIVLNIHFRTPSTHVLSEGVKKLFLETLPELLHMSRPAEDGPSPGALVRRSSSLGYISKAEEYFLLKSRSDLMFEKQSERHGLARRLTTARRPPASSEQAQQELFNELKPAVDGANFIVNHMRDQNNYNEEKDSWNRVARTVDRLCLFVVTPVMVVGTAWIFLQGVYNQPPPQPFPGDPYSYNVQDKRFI
Target sequence in this assay (P07510 23-517, further chain): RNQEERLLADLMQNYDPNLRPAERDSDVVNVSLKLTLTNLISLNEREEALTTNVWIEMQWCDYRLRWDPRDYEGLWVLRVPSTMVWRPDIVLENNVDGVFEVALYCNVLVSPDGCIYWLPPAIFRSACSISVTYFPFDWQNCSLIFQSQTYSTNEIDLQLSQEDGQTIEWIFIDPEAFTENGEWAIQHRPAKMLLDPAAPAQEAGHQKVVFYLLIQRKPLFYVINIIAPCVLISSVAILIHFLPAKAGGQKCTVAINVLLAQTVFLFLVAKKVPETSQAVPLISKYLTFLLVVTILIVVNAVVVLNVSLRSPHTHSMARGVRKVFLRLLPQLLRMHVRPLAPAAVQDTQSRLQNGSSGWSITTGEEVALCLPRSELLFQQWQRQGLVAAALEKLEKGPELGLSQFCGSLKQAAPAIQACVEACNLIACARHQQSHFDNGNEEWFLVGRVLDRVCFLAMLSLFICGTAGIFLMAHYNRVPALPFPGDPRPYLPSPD
Target sequence in this assay (P11230 24-501, further chain): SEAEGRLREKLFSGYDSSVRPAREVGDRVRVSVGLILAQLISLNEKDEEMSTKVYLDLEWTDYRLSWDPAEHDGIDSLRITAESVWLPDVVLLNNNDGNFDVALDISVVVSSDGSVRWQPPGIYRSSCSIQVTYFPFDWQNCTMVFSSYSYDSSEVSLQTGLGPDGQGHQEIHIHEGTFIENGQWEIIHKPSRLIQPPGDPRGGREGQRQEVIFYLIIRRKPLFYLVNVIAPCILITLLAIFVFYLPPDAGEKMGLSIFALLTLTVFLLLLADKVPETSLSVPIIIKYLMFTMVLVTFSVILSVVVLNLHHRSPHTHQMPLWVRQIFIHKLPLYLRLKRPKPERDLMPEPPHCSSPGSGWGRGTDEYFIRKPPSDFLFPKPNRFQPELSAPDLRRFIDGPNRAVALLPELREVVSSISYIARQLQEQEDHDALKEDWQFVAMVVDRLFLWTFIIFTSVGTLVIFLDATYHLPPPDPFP
Another series relates to TE671 cells. How it is done:
To evaluate the toxicity of Spep-1 and Spep-2, WST Assay was performed on TE671 cells.

The test system of a further series is BALB/c mice. The series is classed as in vivo. As for the experimental part:
Specifically, the DAS values for Palmitoyl-L3-37 in Example 18 were evaluated. […]; and a group treated with a saline solution (sterilized 0.9% NaCl) or 70 μg/kg bungarotoxin as a control group. Then, palmitoyl-L3-37 and the saline solution or bungarotoxin at the concentrations as above were injected each 50 μl into the hind thigh muscles of mice. Thereafter, the mice weight and the sole of the injected portion were observed and recorded every day, and the results are shown in FIGS. 37 to 39.

Where [4] appears, read: ELISA of selected 14-mer (L3) peptide phages on AchR, Spep-2 positive control.
[5] abbreviates: ELISA of selected 11-mer (L2) peptide phages on AchR, Spep-2 positive control.
Where [6] appears, read: phage ELISA, 5 μg/ml AchR, 4th and 5th round biopanning phages.

Acetylcholine receptor proteins (AchR), sequence (P02708 21-457): as the sequence (P02708 21-457) above

As for RKSLLR [Spep-2-ND5, RKSLLR], in series [1], the “binding affinity reduced compared with Spep-2 (11-mer)” value is reported as 48 times and the “AchR binding affinity compared with Spep-2” value is “significantly reduced binding affinity”.
For “L3-28: 14-mer optimized peptide of the L3 library (Table 12, not shown here) (PNGKVRKRIRRRYF; AchR binding peptide) [Peptide L3-28]”, in series [1], the “AchR binding affinity (resonance units: Ru) among representative peptides” value is given as “highest binding affinity”. This compound also registered an OD in the series with AchR [2] (setting [4]) of 0.803. Besides, the AchR inhibition result with AchR [3] (nicotine 400 μM, peptide 2.5 μM) is listed as “could not inhibit”.
As for “L2-110: 11-mer optimized peptide of the L2 library (Table 11, not shown here) (RYAKHRKRQTR; AchR binding peptide) [Peptide L2-110]”, the “AchR binding affinity (resonance units: Ru) among representative peptides” value in series [1] is recorded as “higher binding affinity to AchR compared with the 8-mer L1-13”. Also, in the series with AchR [2] (setting [5]), the OD amounted to 0.831. For the same compound, the AchR inhibition result in the series with AchR [3] (nicotine 400 μM, peptide 5 μM) is listed as “could not inhibit”.
For the compound `NCCC(=O)N1CCC[C@H]1C(=O)N[C@@H](CCN)C(=O)NCc1ccccc1` [Synake, reference compound] (H-[βAla]-Pro-[Dab]-NHBn; N-terminus and C-terminus assumed), in the series with TE671 cells (TE671 cells, treatment concentration of 100 μM), the “toxicity (WST assay)” value was “no toxicity”.
Regarding GRKSLLR [Spep-2-ND4], the “AchR binding affinity compared with Spep-2” value in series [1] is listed as “significantly reduced binding affinity”.
For the compound WTWKGRDKLQM [Spep-4], the AchR binding affinity result in series [1] is given as “high AchR binding affinity compared with Synake”.
For `CCCCCCCCCCCCCCCC(=O)N[C@@H](Cc1c[nH]c2ccccc12)C(=O)N[C@H](C(=O)N[C@@H](Cc1c[nH]c2ccccc12)C(=O)N[C@@H](CCCCN)C(=O)NCC(=O)N[C@@H](CCCNC(=N)N)C(=O)N[C@@H](CCCCN)C(=O)N[C@@H](CO)C(=O)N[C@@H](CC(C)C)C(=O)N[C@@H](CC(C)C)C(=O)N[C@@H](CCCNC(=N)N)C(=O)O)[C@@H](C)O` [Palmitoyl-Spep-2] (Palmitoyl-WTWKGRKSLLR-OH), the “cytotoxicity (WST assay)” value with TE671 cells is on record as “no cytotoxicity”.
On to WTWKGRKSLLR [Spep-2, WTWKGRKSLLR], for which the AchR binding affinity result in series [1] is given as “high AchR binding affinity compared with Synake”. The “AchR binding affinity superior to that of Synake” value in series [1] (from Kd values) is on record as “about 2,000 times”. For the same compound, the OD at AchR [2] (setting [5]), at AchR [2] (setting [4]) and on AchR [2] (setting [6]) was 0.303 throughout. The “toxicity (WST assay)” value in the series with TE671 cells was “no toxicity”. Besides, on AchR [3], the pIC50 was 6.12. Moreover, the AchR inhibitory effect on AchR [3] (peptide 0.5 μM, TE671 cells) was 90%; on AchR [3] (peptide 5 μM, TE671 cells) it was 100%. The AchR inhibitory rate result at AchR [3] (nicotine 400 μM, peptide 20 μM, TE671 cells) was “about 10%”. In addition, the AchR inhibition result was “could not inhibit” at AchR [3] (nicotine 400 μM, peptide 70 μM) and 100% at AchR [3] (nicotine 400 μM, peptide 80 μM). Further, the “nicotinic acetylcholine receptor inhibitory effects” value at AchR [3] (nicotine treatment, compared with Synake, TE671 cells) was “excellent nicotinic acetylcholine receptor inhibitory effects”.
As for WTWKGKGTLNR [Spep-1, WTWKGKGTLNR], the “toxicity (WST assay)” value in the series on TE671 cells is on record as “no toxicity”.
Take `CCCCCCCCCCCCCCCC(=O)N[C@@H](CO)C(=O)N[C@@H](CC(N)=O)C(=O)N[C@H](C(=O)N[C@@H](CCCCN)C(=O)N[C@@H](CCCNC(=N)N)C(=O)N[C@@H](CCCCN)C(=O)N[C@@H](CCCNC(=N)N)C(=O)NCC(=O)N[C@@H](CCCNC(=N)N)C(=O)N[C@@H](CS)C(=O)N[C@@H](CCCCN)C(=O)N1CCC[C@H]1C(=O)N[C@@H](Cc1ccc(O)cc1)C(=O)N[C@@H](CCCNC(=N)N)C(=O)O)C(C)C` [Palmitoyl-L3-37] (Palmitoyl-SNVKRKRGRCKPYR-OH): the weight of mice result with BALB/c mice (all groups, 7 days after administration) was “gradually increased”. Further, the acute toxicity entry in the series on BALB/c mice (up to 25 mg/kg IM, 7 days) was “no toxicity was observed”.
With “L3-27: 14-mer optimized peptide of the L3 library (Table 12, not shown here) (RARKKRKSLLRRQV; AchR binding peptide) [Peptide L3-27]”, the “AchR binding affinity (resonance units: Ru) among representative peptides” value in series [1] is “highest binding affinity”. In addition, the OD with AchR [2] (setting [4]) amounted to 0.83. Besides, the AchR inhibition with AchR [3] (nicotine 400 μM, peptide 1 μM) is 50%; with AchR [3] (nicotine 400 μM, peptide 5 μM) it was “could not inhibit”.
On to “L3-37: 14-mer optimized peptide of the L3 library (Table 12, not shown here) (SNVKRKRGRCKPYR; AchR binding peptide) [Peptide L3-37]”, for which the “AchR binding affinity (resonance units: Ru) among representative peptides” value in series [1] is “highest binding affinity”. This compound had an OD with AchR [2] (setting [4]) of 0.69.
Regarding KTKKLYEK [Peptide L1-25], the OD with AchR [2] (setting [6]) is 0.709.
As for KWKRFSQR [Peptide L1-197], the OD with AchR [2] (setting [6]) worked out at 0.631.
The same measure, in the same setting: with KDRKVNSR [Peptide L1-97] the figure was 0.546.
Consider WTWKGNKQVKF [Spep-10], for which the AchR binding affinity result in series [1] is “high AchR binding affinity compared with Synake”.
In the series with AchR [2] (setting [6]), RNRKIPLK [Peptide L1-44] came in with an OD of 0.59.
The same measure, in the same setting: with KYKKQHTK [Peptide L1-41] the figure was 0.613.
In the series with AchR [2] (setting [5]), “L2-39 (LMTKNRRNSFR; AchR binding peptide) [Peptide L2-39]” displayed an OD of 0.669.
The same measure, in the same setting: the figure for “L2-54 (HHWRFKREMPR; AchR binding peptide) [Peptide L2-54]” is 0.609.
In turn, KIKRNVFK [Peptide L1-160] showed an OD with AchR [2] (setting [6]) of 0.55.
Consider “L2-8 (FGHRGKKEWAR; AchR binding peptide) [Peptide L2-8]”, for which the OD with AchR [2] (setting [5]) was 0.739.
In the case of “L2-42 (YYAKSKKYMVR; AchR binding peptide) [Peptide L2-42]”, the OD in the series with AchR [2] (setting [5]) was found to be 0.508.
In the series with AchR [2] (setting [6]), RWKKNINK [Peptide L1-80] yielded an OD of 0.631.
In turn, “L2-82 (PDTRWKRVLFK; AchR binding peptide) [Peptide L2-82]” had an OD with AchR [2] (setting [5]) of 0.693.
KCKKDNDK [Peptide L1-184] showed an OD with AchR [2] (setting [6]) of 0.593.
On to “L3-66 (YISKSKKTAGRWFW; AchR binding peptide) [Peptide L3-66]”, for which the OD with AchR [2] (setting [4]) is recorded as 0.738.
On to “L2-58 (ANPKNRKDNLR; AchR binding peptide) [Peptide L2-58]”, for which the OD with AchR [2] (setting [5]) is given as 0.701.
The compound “L3-116 (YGSKQRRFEEKICG; AchR binding peptide) [Peptide L3-116]” had an OD with AchR [2] (setting [4]) of 0.644.
The same measure, in the same setting: with “L3-130 (EHSKHRKDLFRMVG; AchR binding peptide) [Peptide L3-130]” the figure was 0.531; with “L3-42 (ETNRTRKQCYKTTF; AchR binding peptide) [Peptide L3-42]”, 0.71.
The compound RGKKPWWR [Peptide L1-104] registered an OD with AchR [2] (setting [6]) of 0.46.
The compound “L2-38 (ESEKIKRLSTR; AchR binding peptide) [Peptide L2-38]” yielded an OD with AchR [2] (setting [5]) of 0.88.
On to “L3-60 (EDLRCKKLELRSVI; AchR binding peptide) [Peptide L3-60]”, for which the OD in the series with AchR [2] (setting [4]) was 0.574.
